Source: paper PMC11388069

Columns and labels:
[1] = NHS-LC-biotin labelled membranous P-gp degradation; settings: glycan changed form; control: parental MCF7DOX
[2] = proteomics and blot of isolated microvesicles; settings: glycan changed form; control: MCF7DOX-MVs
[3] = immunofluorescence, plasma membrane P-gp; settings: glycan changed form; control: parental MCF7DOX
[4] = AHA labelling of newly synthesized P-gp; settings: glycan changed form; control: parental MCF7DOX
[5] = immunoprecipitation, western blot; settings: glycan changed form; control: parental MCF7DOX

P-glycoprotein (P-gp, MDR1): MGAT3 overexpression
degradation_or_half_life [1]: increases
other: recruitment into microvesicles [2]: decreases
localisation_or_trafficking [3]: decreases
other: new protein synthesis [4]: no change
expression_or_secretion [5]: decreases
